Reference: patent publication US20090276160A1 (published 2009)

Assays:
Assay in all cases: cell-based or functional assay
[1] = molecular target: T1, Hepatocyte growth factor activator (HGFA), activated 34 kDa short form, residues Val373 to Ser655 with a … (human, UniProt Q04756 408-655, single N-acetylglucosamine attached to Asn74 (chymotrypsinogen numbering))
T1 sequence 1: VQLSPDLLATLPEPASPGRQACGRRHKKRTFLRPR
T1 sequence 2: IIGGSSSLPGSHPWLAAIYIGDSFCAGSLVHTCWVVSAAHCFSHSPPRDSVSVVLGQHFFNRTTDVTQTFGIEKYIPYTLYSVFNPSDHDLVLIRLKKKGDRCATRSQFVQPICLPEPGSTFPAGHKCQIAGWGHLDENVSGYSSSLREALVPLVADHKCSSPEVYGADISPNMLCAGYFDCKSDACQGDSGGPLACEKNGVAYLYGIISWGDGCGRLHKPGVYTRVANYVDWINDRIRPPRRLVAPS

[2] = molecular target: Factor XIa (Haematologic Technologies) (human, UniProt P03951 19-625)
[3] = molecular target: T2, Factor XIIa (American Diagnostica) (human, UniProt P00748 20-615, limits assumed)
T2 sequence (looked up): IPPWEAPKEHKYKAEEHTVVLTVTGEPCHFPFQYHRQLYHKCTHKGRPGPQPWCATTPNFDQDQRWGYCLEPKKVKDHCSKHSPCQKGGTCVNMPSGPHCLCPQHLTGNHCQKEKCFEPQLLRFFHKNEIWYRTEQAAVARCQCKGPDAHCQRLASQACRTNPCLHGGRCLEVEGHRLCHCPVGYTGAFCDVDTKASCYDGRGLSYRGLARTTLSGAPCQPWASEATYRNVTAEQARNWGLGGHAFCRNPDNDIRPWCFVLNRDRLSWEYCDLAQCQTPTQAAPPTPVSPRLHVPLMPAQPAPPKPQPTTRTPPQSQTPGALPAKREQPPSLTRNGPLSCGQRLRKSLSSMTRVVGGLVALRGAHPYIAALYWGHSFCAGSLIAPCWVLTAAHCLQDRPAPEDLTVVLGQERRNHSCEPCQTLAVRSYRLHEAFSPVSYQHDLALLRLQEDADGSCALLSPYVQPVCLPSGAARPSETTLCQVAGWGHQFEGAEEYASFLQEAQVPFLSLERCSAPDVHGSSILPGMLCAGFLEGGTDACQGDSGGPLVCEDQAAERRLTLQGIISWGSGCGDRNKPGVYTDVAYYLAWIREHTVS

[4] = molecular target: Thrombin (Haematologic Technologies) (human, UniProt P00734 328-622)
[5] = molecular target: Tissue factor/factor VIIa complex: human tissue factor (residues 1-219) with human recombinant FVIIa (human, UniProt P13726 33-251; P08709 61-466)
Tissue factor/factor VIIa complex: human tissue factor (residues 1-219) with human recombinant FVIIa, sequence (P13726 33-251 limits assumed, chain 1 of 2): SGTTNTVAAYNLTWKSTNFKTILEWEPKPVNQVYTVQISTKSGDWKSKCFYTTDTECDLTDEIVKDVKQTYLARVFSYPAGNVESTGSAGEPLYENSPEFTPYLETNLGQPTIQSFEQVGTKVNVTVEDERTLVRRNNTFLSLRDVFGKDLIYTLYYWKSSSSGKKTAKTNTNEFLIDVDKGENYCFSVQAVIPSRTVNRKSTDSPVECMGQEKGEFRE
Tissue factor/factor VIIa complex: human tissue factor (residues 1-219) with human recombinant FVIIa, sequence (P08709 61-466 limits assumed, chain 2 of 2): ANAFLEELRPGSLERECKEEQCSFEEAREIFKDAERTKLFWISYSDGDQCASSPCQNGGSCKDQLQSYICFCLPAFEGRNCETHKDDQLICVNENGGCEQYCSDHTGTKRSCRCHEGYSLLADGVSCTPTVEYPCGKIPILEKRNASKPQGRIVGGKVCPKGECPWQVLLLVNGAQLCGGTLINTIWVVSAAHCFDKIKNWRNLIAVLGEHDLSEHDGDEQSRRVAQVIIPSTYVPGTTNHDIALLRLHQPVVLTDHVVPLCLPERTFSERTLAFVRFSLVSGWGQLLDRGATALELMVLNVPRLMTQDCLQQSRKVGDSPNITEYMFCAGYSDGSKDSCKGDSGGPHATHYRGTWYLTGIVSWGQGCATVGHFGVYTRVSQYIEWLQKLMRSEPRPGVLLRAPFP

[6] = molecular target: Factor Xa (Haematologic Technologies) (human, UniProt P00742 41-179; P00742 235-488, limits assumed)
Factor Xa (Haematologic Technologies), sequence (P00742 41-179 limits assumed, chain 1 of 2): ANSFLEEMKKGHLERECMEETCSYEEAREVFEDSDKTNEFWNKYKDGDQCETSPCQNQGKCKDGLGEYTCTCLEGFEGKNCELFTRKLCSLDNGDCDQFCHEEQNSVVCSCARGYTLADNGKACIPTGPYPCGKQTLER
Factor Xa (Haematologic Technologies), sequence (P00742 235-488 limits assumed, chain 2 of 2): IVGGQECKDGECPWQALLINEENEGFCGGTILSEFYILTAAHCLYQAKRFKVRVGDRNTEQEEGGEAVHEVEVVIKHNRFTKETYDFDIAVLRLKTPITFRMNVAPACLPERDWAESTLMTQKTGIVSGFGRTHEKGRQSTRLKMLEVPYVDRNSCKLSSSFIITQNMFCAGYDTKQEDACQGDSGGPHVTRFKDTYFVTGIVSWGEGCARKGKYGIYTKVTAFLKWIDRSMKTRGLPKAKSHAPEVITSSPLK

[7] = molecular target: Activated Protein C (Haematologic Technologies) (human, UniProt P04070 43-197; P04070 212-461)
Activated Protein C (Haematologic Technologies), sequence (P04070 43-197, form in doubt, chain 1 of 2): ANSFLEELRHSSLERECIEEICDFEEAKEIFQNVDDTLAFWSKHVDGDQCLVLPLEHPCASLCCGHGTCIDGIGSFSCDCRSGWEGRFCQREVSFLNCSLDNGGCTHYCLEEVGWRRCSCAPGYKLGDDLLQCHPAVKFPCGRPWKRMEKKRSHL
Activated Protein C (Haematologic Technologies), sequence (P04070 212-461, form in doubt, chain 2 of 2): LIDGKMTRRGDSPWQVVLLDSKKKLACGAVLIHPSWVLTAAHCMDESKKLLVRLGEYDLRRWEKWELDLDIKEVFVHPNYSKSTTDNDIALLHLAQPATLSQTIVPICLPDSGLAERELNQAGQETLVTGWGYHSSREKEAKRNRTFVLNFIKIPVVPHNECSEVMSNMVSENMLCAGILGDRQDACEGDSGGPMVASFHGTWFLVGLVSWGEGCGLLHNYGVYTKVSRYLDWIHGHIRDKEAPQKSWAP

[8] = molecular target: T3, Complement factor C1s (Calbiochem) (human, UniProt P09871 16-688)
T3 sequence (looked up): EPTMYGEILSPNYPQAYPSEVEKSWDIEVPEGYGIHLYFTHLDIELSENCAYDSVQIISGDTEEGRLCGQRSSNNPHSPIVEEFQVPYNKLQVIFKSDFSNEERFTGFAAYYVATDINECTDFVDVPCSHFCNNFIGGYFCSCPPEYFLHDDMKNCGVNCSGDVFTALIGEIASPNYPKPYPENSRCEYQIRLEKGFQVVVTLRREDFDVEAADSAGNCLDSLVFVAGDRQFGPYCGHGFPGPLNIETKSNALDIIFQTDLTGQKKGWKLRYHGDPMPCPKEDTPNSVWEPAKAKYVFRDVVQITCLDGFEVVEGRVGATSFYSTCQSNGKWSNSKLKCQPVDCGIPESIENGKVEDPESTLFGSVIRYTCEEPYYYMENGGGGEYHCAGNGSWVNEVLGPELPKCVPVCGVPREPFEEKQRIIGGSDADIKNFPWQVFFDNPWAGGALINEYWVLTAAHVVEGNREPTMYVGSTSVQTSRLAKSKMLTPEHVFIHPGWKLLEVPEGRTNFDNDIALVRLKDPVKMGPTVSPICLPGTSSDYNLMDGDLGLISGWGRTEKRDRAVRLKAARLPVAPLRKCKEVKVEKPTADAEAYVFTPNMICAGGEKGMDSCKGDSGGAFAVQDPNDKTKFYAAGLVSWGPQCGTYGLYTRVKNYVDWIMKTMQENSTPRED

[9] = molecular target: tPA (Activase, Genentech) (human, UniProt P00750 36-562)
tPA (Activase, Genentech), sequence (P00750 36-562 limits assumed): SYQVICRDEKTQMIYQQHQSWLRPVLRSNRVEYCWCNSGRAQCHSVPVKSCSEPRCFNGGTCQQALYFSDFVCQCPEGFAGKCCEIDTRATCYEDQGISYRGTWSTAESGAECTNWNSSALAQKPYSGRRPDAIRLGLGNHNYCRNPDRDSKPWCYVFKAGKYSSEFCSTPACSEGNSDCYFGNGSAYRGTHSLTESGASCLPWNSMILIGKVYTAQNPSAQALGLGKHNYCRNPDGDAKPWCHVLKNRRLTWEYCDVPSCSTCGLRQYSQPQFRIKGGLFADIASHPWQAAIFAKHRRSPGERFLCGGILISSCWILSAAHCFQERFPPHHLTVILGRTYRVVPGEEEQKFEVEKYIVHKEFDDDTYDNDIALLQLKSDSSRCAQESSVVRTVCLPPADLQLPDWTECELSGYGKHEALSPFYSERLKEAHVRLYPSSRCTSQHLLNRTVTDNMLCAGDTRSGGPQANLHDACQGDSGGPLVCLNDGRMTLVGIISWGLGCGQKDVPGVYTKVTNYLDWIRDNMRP

uPA (Chemicon) = uPA (Chemicon) (human, UniProt P00749 21-431, limits assumed)
[10] = molecular target: T4, Matriptase (residues 615-855) (human, UniProt Q9Y5Y6 615-855)
T4 sequence (looked up): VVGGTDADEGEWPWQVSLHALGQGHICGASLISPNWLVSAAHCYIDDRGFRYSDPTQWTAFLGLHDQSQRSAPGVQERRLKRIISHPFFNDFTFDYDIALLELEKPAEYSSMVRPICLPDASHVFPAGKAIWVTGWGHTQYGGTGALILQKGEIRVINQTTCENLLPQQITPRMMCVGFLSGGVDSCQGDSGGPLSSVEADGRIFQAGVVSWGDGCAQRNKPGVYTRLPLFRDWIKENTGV

Hepsin (residues 45-417) = Hepsin (residues 45-417) (human, UniProt P05981 45-417)
Hepsin (residues 45-417), sequence (P05981 45-417 limits assumed): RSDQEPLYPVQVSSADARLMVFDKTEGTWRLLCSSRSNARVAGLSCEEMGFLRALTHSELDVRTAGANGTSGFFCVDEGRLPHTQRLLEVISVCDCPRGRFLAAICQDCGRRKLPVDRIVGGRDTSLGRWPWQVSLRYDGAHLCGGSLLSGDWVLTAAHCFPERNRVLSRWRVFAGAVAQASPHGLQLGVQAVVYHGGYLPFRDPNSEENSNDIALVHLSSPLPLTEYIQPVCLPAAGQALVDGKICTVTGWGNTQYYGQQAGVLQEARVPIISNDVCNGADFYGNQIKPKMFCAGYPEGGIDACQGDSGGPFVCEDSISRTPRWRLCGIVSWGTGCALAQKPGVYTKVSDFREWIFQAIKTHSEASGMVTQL

[11] = molecular target: Bovine trypsin (Worthington) (bovine, UniProt P00760 24-246)
Bovine trypsin (Worthington), sequence (P00760 24-246): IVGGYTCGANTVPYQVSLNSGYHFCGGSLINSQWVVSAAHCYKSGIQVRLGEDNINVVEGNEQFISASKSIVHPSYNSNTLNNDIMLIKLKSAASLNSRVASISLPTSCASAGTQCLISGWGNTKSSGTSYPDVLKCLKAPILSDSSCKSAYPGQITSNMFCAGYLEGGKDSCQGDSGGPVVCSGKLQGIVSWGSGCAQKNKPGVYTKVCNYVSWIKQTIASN

[12] = molecular target: Plasmin (Haematologic Technologies) (human, UniProt P00747 97-810, limits assumed)
Plasmin (Haematologic Technologies), sequence (P00747 97-810 limits assumed): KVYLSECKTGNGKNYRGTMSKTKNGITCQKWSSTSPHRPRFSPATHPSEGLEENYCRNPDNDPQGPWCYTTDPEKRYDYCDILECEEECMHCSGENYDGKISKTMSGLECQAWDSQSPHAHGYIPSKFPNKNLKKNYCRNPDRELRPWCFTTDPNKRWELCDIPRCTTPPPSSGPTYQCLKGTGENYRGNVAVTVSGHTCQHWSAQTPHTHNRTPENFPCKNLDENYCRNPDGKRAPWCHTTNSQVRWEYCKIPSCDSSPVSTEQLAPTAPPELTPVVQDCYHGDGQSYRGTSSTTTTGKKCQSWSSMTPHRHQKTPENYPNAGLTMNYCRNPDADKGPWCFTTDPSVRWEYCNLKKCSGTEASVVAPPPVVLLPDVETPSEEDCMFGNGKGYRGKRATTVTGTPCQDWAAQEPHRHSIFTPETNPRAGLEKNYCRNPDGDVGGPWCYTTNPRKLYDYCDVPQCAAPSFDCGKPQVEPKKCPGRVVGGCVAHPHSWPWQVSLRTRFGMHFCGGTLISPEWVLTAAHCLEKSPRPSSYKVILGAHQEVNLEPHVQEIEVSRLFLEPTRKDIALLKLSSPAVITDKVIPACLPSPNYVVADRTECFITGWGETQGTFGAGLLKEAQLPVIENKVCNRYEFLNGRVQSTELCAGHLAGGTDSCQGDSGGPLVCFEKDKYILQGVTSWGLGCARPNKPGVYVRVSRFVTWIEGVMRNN

[13] = molecular target: Plasma kallikrein (American Diagnostica) (human, UniProt P03952 20-638)
Plasma kallikrein (American Diagnostica), sequence (P03952 20-638 limits assumed): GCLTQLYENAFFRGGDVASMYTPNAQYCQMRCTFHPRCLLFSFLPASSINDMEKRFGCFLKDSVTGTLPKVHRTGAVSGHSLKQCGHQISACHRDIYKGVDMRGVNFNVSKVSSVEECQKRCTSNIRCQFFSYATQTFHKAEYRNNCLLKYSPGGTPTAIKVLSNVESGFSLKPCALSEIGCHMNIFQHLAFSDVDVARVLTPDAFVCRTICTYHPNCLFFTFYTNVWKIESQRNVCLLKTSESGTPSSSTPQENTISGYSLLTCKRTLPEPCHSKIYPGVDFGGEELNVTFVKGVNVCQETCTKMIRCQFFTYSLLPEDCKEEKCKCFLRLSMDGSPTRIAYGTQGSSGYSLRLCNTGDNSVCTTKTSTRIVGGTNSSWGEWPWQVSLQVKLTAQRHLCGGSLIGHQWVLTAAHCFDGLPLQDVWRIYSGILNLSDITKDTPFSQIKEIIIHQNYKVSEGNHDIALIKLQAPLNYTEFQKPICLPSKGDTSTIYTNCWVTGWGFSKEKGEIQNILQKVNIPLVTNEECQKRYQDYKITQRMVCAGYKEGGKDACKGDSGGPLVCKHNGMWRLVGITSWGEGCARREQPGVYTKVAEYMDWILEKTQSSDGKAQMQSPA

Chymotrypsin (Sigma) = Chymotrypsin (Sigma) (human, UniProt P17538 19-263)
Chymotrypsin (Sigma), sequence (P17538 19-263): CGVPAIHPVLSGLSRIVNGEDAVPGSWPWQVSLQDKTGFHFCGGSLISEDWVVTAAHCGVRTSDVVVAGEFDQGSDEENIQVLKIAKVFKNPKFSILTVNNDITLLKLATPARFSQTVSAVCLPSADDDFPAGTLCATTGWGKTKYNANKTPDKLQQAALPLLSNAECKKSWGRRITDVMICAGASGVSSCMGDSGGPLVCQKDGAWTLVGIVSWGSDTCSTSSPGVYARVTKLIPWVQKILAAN

B1: First Kunitz domain (KD1) of human HAI-1B, amino acids 246-303 of the precursor, with N-terminal polyhistidine leader (other)
chain: MKHQHQHQHQHQHQMHQTEDYCLASNKVGRCRGSFPRWYYDPTEQICKSFVYGGCLGNKNNYLREEECILACRGV
**Q.** For B1, which “IC50 (nM), inhibition of enzyme activity on chromogenic substrate” value (from here on “IC50 (nM), inhibition of enzyme activity”) [1] is on record?
**A.** The value was 4 nM.

**Q.** What about the “IC50 (nM), inhibition of enzyme activity” value [2] of the same binder?
**A.** The value was over 1000 nM.

**Q.** What about the “IC50 (nM), inhibition of enzyme activity” value [3] of the same binder?
**A.** The value was over 1000 nM.

**Q.** What about the “IC50 (nM), inhibition of enzyme activity” value [4] of the same binder?
**A.** The value was over 1000 nM.

**Q.** And the “IC50 (nM), inhibition of enzyme activity” value [5]?
**A.** Its value is over 1000 nM.

**Q.** What about the “IC50 (nM), inhibition of enzyme activity” value [6] of the same binder?
**A.** The value was over 1000 nM.

**Q.** What about the “IC50 (nM), inhibition of enzyme activity” value [7] of the same binder?
**A.** Its value is over 1000 nM.

**Q.** What about the “IC50 (nM), inhibition of enzyme activity” value [8] of the same binder?
**A.** Its value is over 1000 nM.

**Q.** What about the “IC50 (nM), inhibition of enzyme activity” value [9] of the same binder?
**A.** The value was over 1000 nM.

**Q.** What about the “IC50 (nM), inhibition of enzyme activity” value (uPA (Chemicon)) of the same binder?
**A.** Its value is over 1000 nM.

**Q.** What about the “IC50 (nM), inhibition of enzyme activity” value [10] of the same binder?
**A.** The value was 1.7 nM.

**Q.** And the “IC50 (nM), inhibition of enzyme activity” value (Hepsin (residues 45-417))?
**A.** The value was 6.7 nM.

**Q.** And the “IC50 (nM), inhibition of enzyme activity” value [11]?
**A.** The value was 0.7 nM.

**Q.** What about the “IC50 (nM), inhibition of enzyme activity” value [12] of the same binder?
**A.** The value was 115 nM.

**Q.** What about the “IC50 (nM), inhibition of enzyme activity” value [13] of the same binder?
**A.** The value was 21 nM.

**Q.** And the “IC50 (nM), inhibition of enzyme activity” value (Chymotrypsin (Sigma))?
**A.** The value was over 1000 nM.
